Reference: patent publication US20250376501A1 (JINGYUAN BIOSCIENCES SUZHOU, published 2025)

Tests used:
[1] = target: T1, hTSLP/TSLPR-Fc complex (human, UniProt Q9HC73 23-231); test: ELISA, TSLPR-Fc coated, hTSLP added, hIL-7Rα-mFc titrated, anti-mouse Fc HRP
T1 construct: also called hTSLP/hTSLPR-Fc complex; not shown: His tag of the bought hTSLP; Fc tag of the bought protein (detected with anti-human Fc)
Experimental: TSLPR-Fc recombinant protein (purchased from ACROBiosystems, Cat. No. TSR-H525a) was coated onto a plate at 0.1 μg/well and incubated at 4° C. overnight. Subsequently, the plate was washed and added with 0.1 μg/well of hTSLP, and the mixture was reacted at room temperature for 1 hour. […] After washing, goat anti-mouse Fc tag horseradish peroxidase-labeled antibody (purchased from Abcam, ab97040) was added, and the mixture was reacted at room temperature for 1 hour. After washing, substrate solution was added, and the absorbance was read at 450 nm.

[2] = target: T2, hTSLP-mFc recombinant protein (ACROBiosystems, Cat. No. TSP-H5255) (human, UniProt Q969D9 29-159); test: ELISA, hTSLP-mFc coated 50 ng/well, anti-His HRP
T2 construct: Bought protein; also called hTSLP-Fc protein; not shown: mouse Fc tag
T2 sequence (Q969D9 29-159 R127A/R130A limits assumed): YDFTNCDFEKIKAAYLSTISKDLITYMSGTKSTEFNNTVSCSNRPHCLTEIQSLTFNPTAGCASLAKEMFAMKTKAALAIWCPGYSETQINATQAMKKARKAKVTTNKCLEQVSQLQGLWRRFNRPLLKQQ
Experimental: hTSLP-mFc recombinant protein (ACROBiosystems, Cat. No. TSP-H5255) was coated onto a plate at 50 ng/well and incubated at 4° C. overnight. […] After washing, mouse anti-His tag horseradish peroxidase-labeled antibody (1:5000) (purchased from Beijing Sino Biological, 105327-MM02T-H) was added, and the mixture was reacted at room temperature for 1 hour. After washing, TMD substrate solution was added, and the absorbance was read at 450 nm. Data processing and graphical analysis were performed using the software Graphpad Prism 6.0.

[3] = target: T3, hTSLP recombinant protein (ACROBiosystems, Cat. No. TSP-H52Ha) (human, UniProt Q969D9 29-159); test: competitive ELISA: blocks binding of hIL-7Rα-mFc to hTSLP/TSLPR-Fc complex, anti-mouse Fc HRP
T3 construct: Bought protein; also called hTSLP protein; hTSLP-his; not shown: His tag
T3 sequence (Q969D9 29-159 R127A/R130A limits assumed): as above
Experimental: TSLPR-Fc fusion protein was coated onto a plate at a concentration of 0.5 μg/mL and a volume of 100 μL per well, and incubated at 4° C. overnight. […] Then, goat anti-mouse Fc tag horseradish peroxidase-labeled antibody (1:5000) was added, and the mixture was reacted at room temperature for 1 hour. Then, TMD substrate solution was added, and the absorbance was read at 450 nm. Data processing and graphical analysis were performed using the software Graphpad Prism 6.0.

[4] = target: T3, hTSLP recombinant protein …; test: competitive ELISA: blocks binding of hTSLP/hTSLPR-Fc complex to coated mouse IL-7Rα-his, anti-human Fc HRP
Experimental: Then, goat anti-human Fc tag horseradish peroxidase-labeled antibody (1:10000) was added, and the mixture was reacted at room temperature for 1 hour. Then, TMD substrate solution was added, and the absorbance was read at 450 nm. Data processing and graphical analysis were performed using the software Graphpad Prism 6.0.

[5] = target: T3, hTSLP recombinant protein …; test: cell-based or functional assay

EC50 [1] [µg/mL] | EC50 [2] [µg/mL] | IC50 [3] [nM] | IC50 [4] [nM] | inhibition of hTSLP-induced reporter gene expression in BaF3-hTSLPR-hIL-7R-STAT5-Luc cells, IC50 [5] [nM] | inhibition of the proliferation-promoting effect of hTSLP on Ba/F3-TSLPR/IL-7Rα cells (CTG), IC50 [5] [nM] | Binder
0.689 |  |  |  |  |  | hIL-7Rα-mFc (ACROBiosystems, Cat. No. ILA-H5258) (Fc fusion, human, UniProt P16871 21-239, looked up, Bought protein; not shown: mouse Fc tag) ESGYAQNGDLEDAELDDYSFSCYSQLEVNGSQHSLTCAFEDPDVNITNLEFEICGALVEVKCLNFRKLQEIYFIETKKFLLIGKSNICVKVGEKSLTCKKIDLTTIVKPEAPFDLSVVYREGANDFVVTFNTSHLQKKYVKVLMHDVAYRQEKDENKWTHVNLSSTKLTLLQRKLQPAAMYEIKVRSIPDHYFKGFWSEWSPSYYFRTPEINNSSGEMD
 | 0.803 |  |  |  |  | TSLPR-his (Novoprotein Scientific Inc., Cat. No. CW75) (receptor, UniProt Q9HC73 23-231, looked up, Bought protein; not shown: His tag) QGGAAEGVQIQIIYFNLETVQVTWNASKYSRTNLTFHYRFNGDEAYDQCTNYLLQEGHTSGCLLDAEQRDDILYFSIRNGTHPVFTASRWMVYYLKPSSPKHVRFSWHQDAVTVTCSDLSYGDLLYEVQYRSPFDTEWQSKQENTCNVTIEGLDAEKCYSFWVRVKAMEDVYGPDTYPSDWSEVTCWQRGEIRDACAETPTPPKPKLSK
 | 0.029 | 1.29 | 1.69 | 0.348 | 1.55 | 3H10-his recombinant protein (designed binder, Expressed in E. coli Rosetta from pet28b, purified on a nickel column; also called 3H10-his fusion protein; 3H10 recombinant protein; not shown: His tag from vector pet28b) GSHMDLGKKLLEAAWAGRDDEVRILMANGADVNAGDASGDTPLHLAAFSGHLEIVEVLLKHGADVNAEDLLGMTPLHLAAPFGHLEIVEVLLKHGADVNAAARNNGKTPLHLAAFVGHLEIVEVLLKNGADVNAQDKFGKTAFDISIDNGNEDLAEILQKLNG
